Data from patent US20150175697A1 (MacroGenics, published 2015).

Experiments:
[1] = molecular target: soluble CD16A (sCD16A) (human) (UniProt P08637); experiment: SPR (BIAcore), receptor immobilised
[2] = molecular target: T1, soluble CD16A (sCD16A) (human, UniProt P08637 17-208); experiment: sandwich ELISA on conditioned medium: soluble FcRIIb-G2-Agly coated, FcRIIIa-G2-Biotin probe and streptavidin-HRP
T1 construct: extracellular domain; given only as soluble; immobilised in SPR, plate coat or biotin/HRP-labelled probe in ELISA; also called FcγRIIIA; sCD16A-Biotin

[3] = molecular target: T2, human serum albumin (HSA) (human, UniProt P02768 25-609); experiment: SPR sensorgrams with HSA; printed under the panel
T2 construct: also called HRP-human albumin

[4] = molecular target: T3, soluble CD32B (sCD32B) (human, UniProt P31994 43-217); experiment: SPR sensorgrams with sCD32B; printed under the panel
T3 construct: extracellular domain; also called FcγRIIB; soluble CD32B ectodomain
T3 sequence (looked up): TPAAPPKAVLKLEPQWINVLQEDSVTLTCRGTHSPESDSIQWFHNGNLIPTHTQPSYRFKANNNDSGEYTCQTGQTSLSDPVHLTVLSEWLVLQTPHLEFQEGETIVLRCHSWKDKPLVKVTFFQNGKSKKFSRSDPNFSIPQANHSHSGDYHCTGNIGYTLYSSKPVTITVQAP

[5] = molecular target: T1, soluble CD16A (sCD16A); experiment: dual ELISA: CD16A coated, DART titrated, biotinylated sCD32B detection, without HSA
[6] = molecular target: T4, soluble CD16A(158F) (human, UniProt P08637 17-208); experiment: SPR sensorgrams with sCD16A (158F per paragraph 834); printed under the panel
T4 construct: extracellular domain; also called CD16A(F158); sCD16A

[7] = molecular target: T1, soluble CD16A (sCD16A); experiment: dual ELISA: CD16A coated, DART titrated, biotinylated sCD32B detection, with 3 mg/ml HSA
[8] = molecular target: T3, soluble CD32B (sCD32B); experiment: sandwich ELISA: sCD32B coated (sCD32B-Ig, 2 ug/ml), diabody titrated, labelled sCD16A as probe; signal needs both bindings
Description: The binding of eluted and purified diabodies was characterized by ELISA assay, as described in 5.4.2. 50 ul/well of a 2 ug/ml solution of sCD32B-Ig was coated on 96-well Maxisorp plate in Carbonate buffer at 4° C. over night. The plate was washed three times with PBS-T (PBS, 0.1% Tween 20) and blocked by 0.5% BSA in PBS-T for 30 minutes at room temperature. […] The plate was then incubated at room temperature for 1 hour. After washing with PBS-T three times, 50 ul/well of 0.2 ug/ml sCD16A-Biotin was added to each well. The plate was again incubated at room temperature for 1 hour. After washing with PBS-T three times, 50 ul/well of a 1:5000 dilution of HRP conjugated streptavidin (Amersham Pharmacia Biotech) was used for detection. The HRP-streptavidin was allowed to incubate for 45 minutes at room temperature. The plate was washed with PBS-T three times and developed using 80 ul/well of TMB substrate. After a 10 minute incubation, the HRP-TMB reaction was stopped by adding 40 ul/well of 1% H₂SO₄.

[9] = molecular target: T3, soluble CD32B (sCD32B); experiment: sandwich ELISA on conditioned medium: soluble FcRIIb-G2-Agly coated (100 ng/well), diabody titrated, FcRIIIa-G2-Biotin probe and streptavidin-HRP; signal needs both bindings
Description: After three days in culture, the conditioned medium were harvested and characterized by binding ELISA.
100 ng/well of soluble FcRIIb-G2-Agly was coated on 96-well Maxisorp plate in Carbonate buffer at 40° C. overnight. Plate was washed three times with PBS/0.1% Tween20 and then blocked by 0.5% BSA in PBS/0.1% Tween 20 for 30 mins at room temperature before adding diabodies. […] The plate was incubated at room temperature for 1 hour. After washed with PBS/0.1% Tween20 three times, 10 ng/well of FcRIIIa-G2-Biotin was added to the plate. The plate was incubated at room temperature for 1 hour. After washed with PBS/0.1% Tween20 three times, 50 ul of 1:5000 dilution of HRP conjugated Streptavidin (Amersham Pharmacia Biotech) was used for detection. After 45 minutes incubation at room temperature, the plate was washed with PBS/0.1% Tween20 three times and developed using TMB substrate. After 10 minutes incubation, the reaction was stopped by 1% H2SO4. The OD450 nm was read by SOFTmax program.

[10] = molecular target: T2, human serum albumin (HSA); experiment: Albumin Binding Assay; x axis hE16scFv-ABD Concentration (ug/ml); albumin taken as HSA as in Table 23
[11] = molecular target: T2, human serum albumin (HSA); experiment: ABD-Binding Elisa; x axis Protein concentration (ug/ml); albumin taken as HSA as in Table 23
[12] = molecular target: T2, human serum albumin (HSA); experiment: HSA binding class (+++ 0.7-1.0; ++ 0.4-0.7; + 0.1-0.4)
[13] = molecular target: T2, human serum albumin (HSA); experiment: Albumin Binding Assay; x axis hE16scFv-ABD Concentration (ug/ml); albumin taken as HSA as in Table 23; remark: listed apart in the source
[14] = molecular target: T3, soluble CD32B (sCD32B); experiment: sandwich ELISA on conditioned medium: soluble FcRIIb-G2-Agly coated, FcRIIIa-G2-Biotin probe and streptavidin-HRP

T1 sequence (P08637 17-208): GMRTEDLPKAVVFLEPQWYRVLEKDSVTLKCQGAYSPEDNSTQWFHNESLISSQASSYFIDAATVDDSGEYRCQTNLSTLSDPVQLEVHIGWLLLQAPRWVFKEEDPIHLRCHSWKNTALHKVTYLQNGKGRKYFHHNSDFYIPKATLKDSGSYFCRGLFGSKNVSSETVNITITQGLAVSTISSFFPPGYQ
T4 sequence (P08637 17-208): as above
Sequence of soluble CD16A (sCD16A) (human) (P08637 17-208): as above

Molecule: h3G8 scFv
- Kd [1]: 38.7 nM

B1: Hu2B6 4.5 (other)
chain 1: EIVLTQSPDFQSVTPKEKVTFTCRTSQSIGTNIHWYQQKPDQSPKLLIKEVSESISGVPSRFSGSGSGTDFTLTINSLEAEDAATYYCQQSNTWPFTFGGGTKVEIKGGGSGGGGQVQLVQSGAEVKKPGASVKVSCKASGYTFTNYWIHWVRQAPGQGLEWIGVIDPSDTYPNYNKKFKGRVTMTVVVSTSTAYMELRSLRSDDTAVYYCARNGDSDYYSGMDYWGQGTTVTVSSLGGC
chain 2: EIVLTQSPDFQSVTPKEKVTFTCRTSQSIGTNIHWYQQKPDQSPKLLIKEVSESISGVPSRFSGSGSGTDFTLTINSLEAEDAATYYCQQSNTWPFTFGGGTKVEIKGGGSGGGGQVQLVQSGAEVKKPGASVKVSCKASGYTFTNYWIHWVRQAPGQGLEWIGVIDPSDTYPNYNKKFKGRVTMTVVVSTSTAYMELRSLRSDDTAVYYCARNGDSDYYSGMDYWGQGTTVTVSSLGGC
modifications: homodimer of two identical chains, joined by a disulfide between the C-terminal LGGC cysteines
notes: monospecific diabody, conditioned medium; also called Hu2B6 4.5 diabody
- binding result [2]: no binding (tested: 0.5 ug/ml)

B2: hCD16-hCD32B ABD-DART (bispecific antibody)
chain 1: DIVMTQSPDSLAVSLGERATINCKASQSVDFDGDSFMNWYQQKPGQPPKLLIYTTSNLESGVPDRFSGSGSGTDFTLTISSLQAEDVAVYYCQQSNEDPYTFGQGTKLEIKGGGSGGGGQVQLVQSGAEVKKPGASVKVSCKASGYTFTNYWIHWVRQAPGQGLEWIGVIDPSDTYPNYNKKFKGRVTMTVVVSTSTAYMELRSLRSDDTAVYYCARNGDSDYYSGMDYWGQGTTVTVSSGGCGGGKVAALKEKVAALKEKVAALKEKVAALKEGGGNS
chain 2: EIVLTQSPDFQSVTPKEKVTFTCRTSQSIGTNIHWYQQKPDQSPKLLIKEVSESISGVPSRFSGSGSGTDFTLTINSLEAEDAATYYCQQSNTWPFTFGGGTKVEIKGGGSGGGGQVTLRESGPALVKPTQTLTLTCTFSGFSLSTSGMGVGWIRQPPGKALEWLAHIWWDDDKRYNPALKSRLTISKDTSKNQVVLTMTNMDPVDTATYYCAQINPAWFAYWGQGTLVTVSSGGCGGGEVAALEKEVAALEKEVAALEKEVAALEKGGGNSLAEAKVLANRELDKYGVSDYYKNLINNAKTVEGVKALIDEILAALP
notes: also called DART ABD fusion; hCD16-hCD32B EK ABD-DART
- Kd [3]: 7.1 nM
- koff [3]: 0.00064 s⁻¹
- kon [3]: 90000 M⁻¹ s⁻¹
- Kd [4]: 30 nM
- koff [4]: 0.0072 s⁻¹
- kon [4]: 240000 M⁻¹ s⁻¹
- EC50 (read off the curve) [5]: ~0.05 µg/mL
- Kd [6]: 137 nM
- koff [6]: 0.052 s⁻¹
- kon [6]: 380000 M⁻¹ s⁻¹
- EC50 (read off the curve) [7]: ~0.06 µg/mL

B3: h2B6-h3G8 covalent bispecific diabody (CBD) (bispecific antibody)
chain 1: EIVLTQSPDFQSVTPKEKVTFTCRTSQSIGTNIHWYQQKPDQSPKLLIKEVSESISGVPSRFSGSGSGTDFTLTINSLEAEDAATYYCQQSNTWPFTFGGGTKVEIKGGGSGGGGQVTLRESGPALVKPTQTLTLTCTFSGFSLSTSGMGVGWIRQPPGKALEWLAHIWWDDDKRYNPALKSRLTISKDTSKNQVVLTMTNMDPVDTATYYCAQINPAWFAYWGQGTLVTVSSLGGC
chain 2: DIVMTQSPDSLAVSLGERATINCKASQSVDFDGDSFMNWYQQKPGQPPKLLIYTTSNLESGVPDRFSGSGSGTDFTLTISSLQAEDVAVYYCQQSNEDPYTFGQGTKLEIKGGGSGGGGQVQLVQSGAEVKKPGASVKVSCKASGYTFTNYWIHWVRQAPGQGLEWIGVIDPSDTYPNYNKKFKGRVTMTVVVSTSTAYMELRSLRSDDTAVYYCARNGDSDYYSGMDYWGQGTTVTVSSLGGC
notes: covalent heterodimer of constructs 1 and 2; also called h2B6-h3G8 CBD; h2B6-h3G8 diabody
- EC50 (read off the curve) [8]: ~0.05 µg/mL

B4: Hu2B6 4.5-Hu3G8 5.1 (bispecific antibody)
chain 1: DIVMTQSPDSLAVSLGERATINCKASQSVDFDGDSFMNWYQQKPGQPPKLLIYTTSNLESGVPDRFSGSGSGTDFTLTISSLQAEDVAVYYCQQSNEDPYTFGQGTKLEIKGGGSGGGGQVQLVQSGAEVKKPGASVKVSCKASGYTFTNYWIHWVRQAPGQGLEWIGVIDPSDTYPNYNKKFKGRVTMTVVVSTSTAYMELRSLRSDDTAVYYCARNGDSDYYSGMDYWGQGTTVTVSSLGGC
chain 2: EIVLTQSPDFQSVTPKEKVTFTCRTSQSIGTNIHWYQQKPDQSPKLLIKEVSESISGVPSRFSGSGSGTDFTLTINSLEAEDAATYYCQQSNTWPFTFGGGTKVEIKGGGSGGGGQVTLRESGPALVKPTQTLTLTCTFSGFSLSTSGMGVGWIRQPPGKALEWLAHIWWDDDKRYNPALKSRLTISKDTSKNQVVLTMTNMDPVDTATYYCAQINPAWFAYWGQGTLVTVSSLGGC
modifications: the two chains are joined by a disulfide between their C-terminal LGGC cysteines
notes: tested as conditioned medium of HEK-293 cells; also called Hu2B6 4.5-Hu3G8 5.1 biospecific diabody
- EC50 (read off the curve) [9]: ~0.05 µg/mL

B5: ABD3 I65A/N66D (other)
chain: LAEAKVLANRELDKYGVSDYYKNLADNAKTVEGVKALIDEILAALP
notes: also called 65A/66D
- binding result [10]: binds

B6: Y61A/T70S (other)
albumin-binding domain: LAEAKVLANRELDKYGVSDYAKNLINNAKSVEGVKALIDEILAALP
- binding result [11]: binds

B7: ABD3 L64A/I65A/V71A (ABD (AAA)) (other)
chain: LAEAKVLANRELDKYGVSDYYKNAANNAKTAEGVKALIDEILAALP
notes: also called 64A/65A/71A
- HSA binding [12]: 0.4 to 0.7

B8: ABD3 L64A/I65A (other)
chain: LAEAKVLANRELDKYGVSDYYKNAANNAKTVEGVKALIDEILAALP
notes: also called 64A/65A
- binding result [13]: binds

B9: ABD3 Y61A/N66D (other)
chain: LAEAKVLANRELDKYGVSDYAKNLIDNAKTVEGVKALIDEILAALP
notes: also called 61A/66D
- binding result [13]: binds

B10: ABD3 Y61A/N66S (other)
chain: LAEAKVLANRELDKYGVSDYAKNLISNAKTVEGVKALIDEILAALP
notes: also called 61A/66S
- binding result [11]: binds

B11: ABD3 L64A/N66D (other)
chain: LAEAKVLANRELDKYGVSDYYKNAIDNAKTVEGVKALIDEILAALP
notes: also called 64A/66D
- binding result [13]: binds

B12: ABD3 N66S (other)
chain: LAEAKVLANRELDKYGVSDYYKNLISNAKTVEGVKALIDEILAALP
- binding result [11]: binds

B13: ABD3 T70S (other)
chain: LAEAKVLANRELDKYGVSDYYKNLINNAKSVEGVKALIDEILAALP
- HSA binding [12]: 0.7 to 1

B14: Hu3G8 5.1 (other)
chain 1: DIVMTQSPDSLAVSLGERATINCKASQSVDFDGDSFMNWYQQKPGQPPKLLIYTTSNLESGVPDRFSGSGSGTDFTLTISSLQAEDVAVYYCQQSNEDPYTFGQGTKLEIKGGGSGGGGQVTLRESGPALVKPTQTLTLTCTFSGFSLSTSGMGVGWIRQPPGKALEWLAHIWWDDDKRYNPALKSRLTISKDTSKNQVVLTMTNMDPVDTATYYCAQINPAWFAYWGQGTLVTVSSLGGC
chain 2: DIVMTQSPDSLAVSLGERATINCKASQSVDFDGDSFMNWYQQKPGQPPKLLIYTTSNLESGVPDRFSGSGSGTDFTLTISSLQAEDVAVYYCQQSNEDPYTFGQGTKLEIKGGGSGGGGQVTLRESGPALVKPTQTLTLTCTFSGFSLSTSGMGVGWIRQPPGKALEWLAHIWWDDDKRYNPALKSRLTISKDTSKNQVVLTMTNMDPVDTATYYCAQINPAWFAYWGQGTLVTVSSLGGC
modifications: homodimer of two identical chains, joined by a disulfide between the C-terminal LGGC cysteines
notes: monospecific diabody, conditioned medium; also called Hu3G8 5.1 diabody
- binding result [14]: no binding (tested: 0.5 ug/ml)
